This note sets out measurements from the DeepSol protein solubility set.

The data set can be described thus: soluble on expression in E. coli; label from the status in PepcDB or PDB records.
As to “MAHHHHHHMKNTVVRIKAELENVKRLFCDDEYLWIFNIRDSTSSLTRDNIQFRKTDILEIPNSRGTANFMIKWTEYPKYSTINFVNTKNSCSYEEVNNNEWRDFASFECRGIELIDFFPSNNFIVEDTKGKLYYDVNLSDQNWCDYNEEHEMCVGIYNLEYEVN”, the “soluble on expression in E. coli” value is recorded as “soluble”. Turning to “VTSPLLPQIGVDPPERGDAARNRRLLLDAAALLVAERGVDAVTMDAVACRAGVGKGTVFRRFGSRSGLMHALLDHTERELQQSFMFGPPPLGPGADPIDRLIAYGHARIAIVEVQGEVQRAAENSVEFRFAAPARAVSVRHVVSLLRAAGVRCDHELLACSLLAPLEATLVLHELRDLGMSVERLGAAWEDLIRRVTRC”, the “soluble on expression in E. coli” value is “not soluble”. With “MATLEITDIALVQPSHQPLSNDQTLSLSHLDNDNNLHVSFRYLRVYSSSSSTVAGESPSAVVSASLATALVHYYPLAGSLRRSASDNRFELLCSAGQSVPLVNATVNCTLESVGYLDGPDPGFVERLVPDPTREEGMVNPCILQVTMFQCGGWVLGASIHHAICDGLGASLFFNAMAELARGATKISIEPVWDRERLLGPREKPWVGAPVRDFLSLDKDFDPYGQAIGDVKRDCFFVTDDSLDQLKAQLLEKSGLNFTTFEALGAYIWRAKVRAAKTEEKENVKFVYSINIRRLMNPPLPKGYWGNGCVPMYAQIKAGELIEQPIWKTAELIKQSKSNTSDEYVRSFIDFQELHHKDGINAGTGVTGFTDWRYLGHSTIDFGWGGPVTVLPLSNKLLGSMEPCFFLPYSTDAAAGSKKDSGFKVLVNLRESAMPEFKEAMDKFHKGEFALS”, the “soluble on expression in E. coli” value was “soluble”.

In the case of “SLPYRGTLVMLMNEEVNKIITLCGKDWAKIGVEFIFLGGKQECENCKIKKTCLKLKEGAKYKIVGLRDGAVQECPLHDEGVVAVEVVELPIIALVDSKIAVEGAKIHYEQRKCDVYDCSMYSLCHPIELNNGETVIVEKVIGDAPEQCRKGHSVIVAELRRAEE”, the “soluble on expression in E. coli” value was “soluble”.

“MGSDKIHHHHHHMILLSFDIEEFDVPKEHQVDISMEEQIKVSVEGTTRILDCLERNQVKATFFCTANFALHAPDIIKRIQEGGHEIASHGFYHWTFEVEDLKRSKDQLEEITGTKVYGYRQARMMPVSEKAVYEAGYIYNSSLNPTFIPGRYMRLSTPRTPFIKDRVMQMPASVTPLLRFPLFWLSCHNLPASLYRWLCKYTHRHDGYFVTYFHPWEFYPLNEHPEWKLPFIIRNHAGEGMEKRLDAFILYFRKKNVSFGRFIDYIKLNKDIMK”: the “soluble on expression in E. coli” value is listed as “not soluble”. On to “MTVQQSGRRERKKAATRQKIADTALRLFLERGYDAVGIRDVAAEADVAVTTLFSHFASKEALVFEQDEDFEHRLTRAVTDRAPHEPLIPALRREILALVRHCTADSAAPIWRMIDASPALRKYDESVRLRHAEALATAIAADPTRTRSETAARTLARFVIDAYSLSREAPDPEAALDEIFPMIEAAWAAARPPHPT”, for which the “soluble on expression in E. coli” value was “not soluble”. Consider “MIKRPIHLSHDFLAEVIDKEAITLDATMGNGNDTVFLAKSSKKVYAFDIQEEAIAKTKAKLTEQGISNAELILDGHENLEQYVHTPLRAAIFNLGYLPSADKTVITKPHTTIKAIKNVLDILEVGGRLSLMVYYGHDGGKSEKDAVIAFVEQLPQNNFATMLYQPLNQVNTPPFLIMVEKLQSYENEV”, for which the “soluble on expression in E. coli” value was “not soluble”. As to “MGSDKIHHHHHHMKIMVITKNILSETAFQNRLQHLDHQVFCTTCLIGEIKESHLFYRKFDAIILSETIPRKEQYLYLKELARVKTPLFLRSEDIPTSEELSISYQYGILNWLRLDATLDTLRENLLLAELNKPIQREDEKLDVEGIKLTAAERALLAVLYSTPKEHLPMERLCKLIYDTEETANNRKKMTKQLTKLNKKIQVGGFKKQGIQNTRYKGYKLHPQLLPYIGELFT”, the “soluble on expression in E. coli” value is on record as “not soluble”.

With “MSKVALIRCESYDYDAVKSAVKRGLDLIGGPHRFAAPNEKILLKPNLLSADPPERCSTTHPSVFKAVAEIFMEAGITNLSYGDSPGIHKPITAARKNGIEKAANELGIKLADFLEGKEVFFENAIQNKKFIIANGVLESDGIISLPKLKTHGFARMTGCVKNQFGCIPGPLKGEFHVRIPSIIDFSKMLVDLNVYLKPRLFVMDGIIAMEGNGPRGGTPRKINAILLSEDPIALDATVCRMINLNPEFVPTIVFGKEAGLGTYDENEIEILGDDIQSFITYDFDVRREPVKPFKPGGAIQFFRNFIVPKPYILKNKCIKCGVCVNACPVKPKAVDWHNGNKKEPPTYIYKRCIRCYCCQELCPESAIHLKVPFIRKFFYNPK”, the “soluble on expression in E. coli” value is “not soluble”.

As to “MGSDKIHHHHHHMSTARLVLLGGFLGAGKTTTMIKSALKLEKEGYRVAIVTNDQGKELIDTELARANGLESKEVTGGCFCCQFDDLYNNLNTLMKEKQPDVIIAEAVGSCTDLAATVIQPLKQYYADKFKTAPLTIVVEPARLLHELNLDENTKPFFSQSVSYIFEKQLAEADIIALNKVDRYSEEEIAKLKAYLQQRYPQTIIQTFSAERGDNLEALTHTWLTTDLGGDKVLDIDYELYAEGEAQLAWMNILGDIKAEQDINPREWAEKLLDNLNKHFIREKMAIAHLKVHVGFEGGYVKASMVQTGDAPTFTVENVKEGKEFRIVLNIRIEATPAILNLVVADSIGAINKELGSNWSETYNECFSPLPPKPVHRLYETV”, the “soluble on expression in E. coli” value is listed as “not soluble”. Regarding “MSIEEEDTNKITCTQDFLHQYFVTERVSIQFGLNNKTVKRINKDEFDKAVNCIMSWTNYPKPGLKRTASTYLLSNSFKKSATVSLPFILGDPVCMPKRVESNNNDTCLLYSDTLYDDPLIQRNDQAGDEIEDEFSFTLLRSEVNEIRPISSSSTAQILQSDYSALMYERQASNGSIFQFSSP”, the “soluble on expression in E. coli” value was “not soluble”.

“MGSDKIHHHHHHMATENKIKYFENREDWRKWLMDNFETEDEIWFVFPLKSSGEKSIAYNDAVEEALCFEWIDSTIKPLDKEHRIQRFTPRKPKSTYSQANKERLKWLLANKMIHPEFEDKIRTVLSDPFIFPNDIMDRLKEDEIAWRNYRHFSDAYKRIRIAYIEAARKRPEEFEKRLNNFICKVKENKMITGFGGIEKYY”: the “soluble on expression in E. coli” value is “not soluble”. For the sequence “MGSDKIHHHHHHMSTNHGANLYSLSSKYGFSKEEFMDFSSNINPFGTSSLAKQYIVNNIDMVSMYPDPDYIDLKTSISNYCKCSIDNIVLGSGATELISSFIHTINPKQALLLSPAYSEYEKELSKINCSIEKYFAKEEDNFHINLENLIKTINAKDYDLVVICNPSNPTGFAFTKVEVREILKNTDSFLMIDETYVEFTDTDTYSCTQLVDDYSNLFVIRGTSKFFSTPGIRLGYGLISNTNVKNEINKNLDLWNINIIASKMGEIMFSDLDFISNTISLMNTERDYLLKELKNIKSLDIYNTKGNFILCKIKTKELTAKSLREQLLPQKIIIRDCCSFKGLDEYFFRVCILKPNENKLLISSLKSIFK”, the “soluble on expression in E. coli” value is “not soluble”. For “MVSIELRDIIKRFGEFELKVSLSVKDGELLTLLGPSGCGKTTTLRIIAGLEKPDKGRVYFDGRDITDLPPYERNIGLVFQDYALFPHMTVFKNVAFGLEVRRVPRMEIEKRVREVLDLVGLRGFENRLPEELSGGQQQRVALARALVIEPDVLLLDEPLSNLDAKVREKLRGEIKRIVKELGITTIYVTHDQEEAMVLSDRIAVMNFGRIEQVGEPYDLYYNPKNEFVANFLGISNIVELEAKEGRACLGDLCFEVGREGKGKIFFRPENVAVGEGIEAEVIGYELLPGRVRLRLSIEGREIIAEELLSRIGKKIPKKVRIRVREFKILP”, the “soluble on expression in E. coli” value is recorded as “soluble”. In the case of “MANAASGMAVHDDCKLRFLELKAKRTHRFIVYKIEEKQKQVVVEKVGQPIQTYEEFAACLPADECRYAIYDFDFVTAENCQKSKIFFIAWCPDIAKVRSKMIYASSKDRFKRELDGIQVELQATDPTEMDLDVFRSRAN”, the “soluble on expression in E. coli” value is recorded as “soluble”.

In the case of “SSEAKKGHVLFFPYPLQGHINPMIQLAKRLSKKGITSTLIIASKDHREPYTSDDYSITVHTIHDGFFPHEHPHAKFVDLDRFHNSTSRSLTDFISSAKLSDNPPKALIYDPFMPFALDIAKDLDLYVVAYFTQPWLASLVYYHINEGTYDVPVDRHENPTLASFPGFPLLSQDDLPSFACEKGSYPLLHEFVVRQFSNLLQADCILCNTFDQLEPKVVKWMNDQWPVKNIGPVVPSKFLDNRLPEDKDYELENSKTEPDESVLKWLGNRPAKSVVYVAFGTLVALSEKQMKEIAMAISQTGYHFLWSVRESERSKLPSGFIEEAEEKDSGLVAKWVPQLEVLAHESIGCFVSHCGWNSTLEALCLGVPMVGVPQWTDQPTNAKFIEDVWKIGVRVRTDGEGLSSKEEIARCIVEVMEGERGKEIRKNVEKLKVLAREAISEGGSSDKKIDEFVALLT”, the “soluble on expression in E. coli” value is given as “soluble”. The result for “MGSDKIHHHHHHMMTSSEIKRIATYVEKGGVGKTTSAAHIAVAAHNRGHEVLLVDLAGTQNDLATHFGLSIVDEEATDDGVSIDAPISAVFGDDWAFLRDNIDDLLDRMTFPTDEGPDLIPADPGLGGADNNLANVPLEERYQKLDGFVEDLVADKYDLVIFDLPGKEDNIALNGLFAARNVVAPLKPGAFERDQLQKLDATLEEISADLDVDLGLALIIPTIISSQETLSESFVEYVTEEYPEIVGEPVTKTADIGNNQNAGRTLFAVPDDELYATGKRAREAYSANTEQLLSRLTDR” reads “not soluble”; that for “MGSDKIHHHHHHMAETAPAPYFSEIARGPDQVEAHWLTTQDGQRIRAGLWRSHGPSAGTILLFPGRTEYIEKYGPLAIDLTDRGFDVLTVDWRGQGLADRSLSDGRLGHVAEFGAFQLDVAALVAHAEALNLPRPWYLLGHSMGGAIGLRALHEGLPVAACAFTAPMWAIRIPFALRPAARLLARFGTALGVSEKLVPTTTIEQYVQVTPFEGNTLTNDPEMYAFLQMQMTQHPELALGGPTVQWLSQAMLECADLRARPSPDVPCVTFLGENEQIVATEAIHDRMARWPSGKLEMIPDAQHEILMEIPQTRRQTCAILTAHFKKHV”, “not soluble”. Next, “MSPMRIGLVCIRGSVPAFENFGFLPTDIVGSNGLVNGSRAHRVLDGIIIPGGSIVESGSLSPELAFEIRRMASDGKFVLGICSGFQALAERTDIGRKSPCPVYREGLGLLNVTFHPMISNDRVEATITGESFLTSGMSGERITGFHCHTYGEIRGDAPEIMKSRIVRADYHERPGEILSGVCSDDGNVAGTMVHGCLDENQTLVSNILKFLDADETARERILEANRKLREALRSELGISTGIRVMDRGGTRGTPPAIMIASTGSDSGKTFILTGLAGALRRRGLRVGVIKVGPDVRDIVPALYLIKEPMEEHSSIRIGRLGWMELRDVLESVRGRYDIILIEGVMSILTGLLNDITPYSGAEIALAAGIPLIMVAGCSKGGIESAVVDLDAHISVLEGLGLEVSCGILNRVYDMDIFERASGGRYLAIPRVEMSERGGTPEVEIKLEDFCLKAMETVEEHLDVDTLISFAKKPEFRGYMGPEEIKKVFSPLEHHHHHH”: “not soluble”; “MNTLYTLFATCPRGLETVLSQELESLGCTDVQVFDGGVSCRGGLEQVYAANLHSRTASRILLRLTKGTYRNERDIYKLAKNINWFNWFTLQQTFKVKVEAKRANVKSIQFVGLTVKDAVCDAFRDIYDARPSVDKAAPDVRIHAFLNERNVEIFIDTSGEALFKRGYRLDTGEAPLRENLAAGLLLSAGYDGTQPFQDPFCGSGTIAIEAAWIAARRAPGMMRRFGFEKLQNFDKTLWSDLRRRAEAQTRPVRAPIAGSDNDRRIVQTALDNARRAGVDDIVSFSVADAQSVRPNGENGIMVSNPPYGVRLEEVRALQALYPQLGTWLKKHYAGWLAAMFTGDREMPKFMCLSPKRKIPLYNGNIDCRLFLIDMVEGSNR”: “not soluble”.
